Source: US7645449B2, “Sensitizing cells for apoptosis by selectively blocking cytokines” (priority 2003, dated 2010)

Experiments:
[1] = system: RT112 bladder carcinoma cells; test: MTS viability of RT112 cells: chemotherapy- and anti-CD95-induced apoptosis; format: cell-based, human
Text: Anticancer treatment using cytotoxic drugs mediates cell death by activating the intracellular apoptotic program. To determine whether IL-4 was able to inhibit apoptosis induced by chemotherapeutic drugs, bladder tumor cells (RT112) were pretreated for two days with different concentrations of IL-4 and subsequently exposed to camptothecin or etoposide.
Human LNCAP prostate cancer cell line and human MDA-MB-231 breast cancer cell line were obtained from the American Type Culture Collection (ATCC, Manassas, Va.). Human RT112 bladder carcinoma cell line was kindly provided by Dr. M. Cippitelli (Regina Elena Cancer Institute, Rome, Italy). Cells were grown in RPMI 1640 (Life Technologies Inc., Grand Island, N.Y.) containing 10% heat inactivated fetal bovine serum supplemented with L-Glutamine 2 mM and 100 units/ml Penicillin-Streptomycin. Cells were kept in 5% CO2 atmosphere and routinely passaged when 80-85% confluent. […] Camptothecin, cisplatin, daunorubicine, etoposide and vincristine were purchased from Sigma-Aldrich Inc. (Sain Louis, Mo.) and resuspended in DMSO (cisplatin, camptothecin and etoposide) or in H2O (daunorubicine and vincristine). Anti-CD95 agonistic antibody (clone CH11) was purchased from Upstate Biotechnology (Lake Placid, N.Y.). Monoclonal antibody anti-Bcl-XL (H5, mouse) was from Santa Cruz (Santa Cruz, Calif.), antibody anti-cFlip/FLAME-1 (NF6, mouse) was kindly provided by Dr. P.H. Krammer (German Cancer Reseach Center, Heidelberg, Germany). Antibody anti β-actin (goat) was purchased from Oncogene (Boston, Mass.):
Cell viability was determined using the CellTiter 96® AQueous One Solution Cell Proliferation Assay (Promega, Madison, Wis.), according to the manufacturer's instructions. The assay is based on reduction of 3-(4,5-dimethylthiazol-2-yl)-5-(3-carboxymethoxyphenyl)-2-(4-sulfophenyl)-2H-tetrazolium, inner salt (MTS) to a colored formazan product that is measured spectrophotometrically. Cells were seeded in 96-well tissue culture plates and incubated at 37° C. in a 5% CO2 incubator overnight. […] After two days cells were treated for 10 hours with chemotherapeutic drugs or anti-CD95, then 20 μl of MTS were added to each well. After 3 hours of incubation at 37° C. with the MTS reagent, the plates were read on a Multilabel Counter (Victor2, Wallac, Perkin-Ehmer Inc., Norwalk, Conn.) and dye absorbance was measured at 490 nm.
The percentage of apoptotic cells was derived from the percentage of viable cells that was directly calculated from the values of the MTS assay. The percentage of protection from apoptosis was determined as: % protection=100%−X
X was calculated with the formule: (C1−C2):100=(S1−S2):X where:
C1 is the viability of untreated control cells, C2 is the viability of control cells treated with the apoptotic stimulus, S1 and S2 are the viability of cells preincubated with cytoldnes or transduced with anti-apoptotic genes, untreated (S1) or treated (S2) with the apoptotic stimuli.
(A) Percentage of viable RT112 bladder carcinoma cells pre-treated for two days with increasing doses of IL-4 (5, 10, 20, 50 and 100 ng/ml) which were maintained also during incubation with chemotherapeutic drugs and exposed to 50 ng/ml camptothecin of 7 μM etoposide. […] Cell viability was determined after 24 hours using the MTS assay as described in Materials and Methods and the percentage of protection from cell death was calculated as described in Materials and Methods. The results shown are the mean ±s.d. of four independent experiments.
When the cytokine is removed by washing the percentage of protection is downmodulated.
(E) IL-4 prevents anti CD95-induced apoptosis. […] Successively, cells were incubated with 30 ng/ml anti-CD95 agonistic antibody in standard medium, Control cells (−) were stimulated with anti-CD95 in the absence of cytokine pre-treatment. The results shown are the mean ±s.d. of four independent experiments.

[2] = system: Bcl-xL and cFlip/FLAME-1 in bladder tumor cells (RT112); test: Western blot of apoptosis-related proteins in RT112 cells; format: cell-based, human
Protocol: The observation that tumor cells treated with IL-4 display a reduced sensitivity to chemotherapeutic drugs led us to investigate whether this cytokine would influence the expression of apoptosis regulatory genes. Western blot analysis of apoptosis-related proteins was performed on cancer cell lines treated for 48 hours with IL-4 as compared to untreated or IL-2-treated controls. […] The increased expression of cFlip/FLAME-1 prompted us to investigate if IL-4 could protect tumor cells from death receptor stimulation. CD95 ligand (CD95L) is one of the major effector molecules of cytotoxic T lymphocytes and NK cells.
Cell pellets were washed twice with cold PBS and lysed on ice for 30 minutes with 1% NP40 lysis buffer (20 mM Tris-HCl pH 7.2, 200 mM NaCl, 1% NP40) in the presence of 1 mM phenylmethylsulphonyl fluoride (PMSF) and 2 μg/ml each of aprotinin, leupeptin and pepstatin. Cell debris was removed by centrifugation at 13,000 rpm for 10 minutes at 4° C. Lysate concentration was determined using the Bio-Rad protein assay (Bio-Rad Laboratories, Richmond, Calif.). Aliquots of cell extracts containing 30 μg of total protein were resolved on 10% or 12% SDS-PAGE and transferred to a Hybond-C extra nitrocellulose membrane (Amersham Pharmacia Biotech, Piscataway, N.J.). […]

B1: IL-4: human recombinant IL-4 (protein, UniProt P05112 25-153, looked up)
Interleukin-4: HKCDITLQEIIKTLNSLTEQKTLCTELTVTDIFAASKNTTEKETFCRAATVLRQFYSHHEKDTRCLGATAQQFHRHKQLIRFLKRLDRNLWGLAGLNSCPVKEANQSTLENFLERLKTIMREKYSKCSS
[1]; 20 ng/ml IL-4 for two days, camptothecin or etoposide, viability after 24 hours
  protection from chemotherapy-induced apoptosis at 20 ng/ml: able to protect cells from chemotherapy-induced apoptosis
[1]; 7 μM etoposide, IL-4 maintained in the culture medium
  time course of protection from etoposide-induced cell death: protected from etoposide-induced cell death from day 2 to day 4
[1]; 24 hours of IL-4 pretreatment
  protective effect after shorter pretreatment: already consistent
[1]; IL-4 higher than 20 ng/ml (50, 100 ng/ml)
  protection from chemotherapy-induced apoptosis at higher concentrations: protective effect is maintained
[1]; pretreated two days with IL-4, then camptothecin or etoposide
  protection of RT112 cells from drug-induced death: significantly protected from drug-induced death
[1]; two days IL-4 pretreatment, 30 ng/ml anti-CD95 agonistic antibody
  CD95-induced apoptosis in bladder cancer cells: significantly inhibit CD95-induced apoptosis
[2]; 48 hours with IL-4
  levels of caspases and other pro- and anti-apoptotic Bcl-2 family members: remained unchanged
[2]; 48 hours with IL-4, compared to untreated or IL-2-treated controls
  levels of Bcl-xL and cFlip/FLAME-1: increased
